In the supplement of paper PMC10567573:

B1: DYRK1B (parent)
chain: YQGPGTRRLQEVLGVQTGGPGGRR

Variants of: B1
Test: protein stability index of a GFP-peptide fusion (GPS, HEK-293T) (PSI 1-6); higher = more stable
Conditions: c terminus: a fixed tail appended
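Note: lentivirally expressed fusions sorted by FACS into six bins by GFP to DsRed ratio, PSI derived from sequencing read proportions per bin multiplied by bin number.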

First: YQGPGTRRLQEVLGVQTGWPGGRR [G19W]
Second: YQGPGTRRLQEVLGVQTGNPGGRR [G19N]
The protein stability index of the first is lower: 2.14 for the first, 3.05 for the second.

First: YQGPGTRRLQEVRGVQTGGPGGRR [L13R]
Second: YQGPGTRRLQEVTGVQTGGPGGRR [L13T]
The protein stability index of the first is lower: 3.61 for the first, 3.97 for the second.

Compared with YQGPGTRRLQEVSGVQTGGPGGRR [L13S], YQGPGTRRLQEVNGVQTGGPGGRR [L13N] is lower in protein stability index: 4.07 for the first, 3.85 for the second.

Compared with YQGPGTRRLQEVPGVQTGGPGGRR [L13P], YQGPGTRRLQEVQGVQTGGPGGRR [L13Q] is higher in protein stability index: 3.44 for the first, 3.89 for the second.

First: YQGPGTRRLQEVKGVQTGGPGGRR [L13K]
Second: YQGPGTRRLQEVMGVQTGGPGGRR [L13M]
The protein stability index of the first is higher: 3.79 for the first, 3.31 for the second.

First: YQGPGTRRLQEVGGVQTGGPGGRR [L13G]
Second: YQGPGTRRLQEVEGVQTGGPGGRR [L13E]
The protein stability index of the first is lower: 3.9 for the first, 4.44 for the second.

First: YQGPGTRRLQEVHGVQTGGPGGRR [L13H]
Second: YQGPGTRRLQEVFGVQTGGPGGRR [L13F]
The protein stability index of the first is higher: 3.94 for the first, 2.9 for the second.

First: YQGPGTRRLQEVWGVQTGGPGGRR [L13W]
Second: YQGPGTRRLQEVDGVQTGGPGGRR [L13D]
The protein stability index of the first is lower: 1.67 for the first, 3.93 for the second.

Compared with YQGPGTRRLQEVIGVQTGGPGGRR [L13I], YQGPGTRRLQEVCGVQTGGPGGRR [L13C] is higher in protein stability index: 3.47 for the first, 3.88 for the second.

Compared with YQGPGTRRLQEVYGVQTGGPGGRR [L13Y], YQGPGTRRLQEVAGVQTGGPGGRR [L13A] is lower in protein stability index: 3.63 for the first, 3.58 for the second.

Compared with YQGPGTRRLQEVVGVQTGGPGGRR [L13V], YQGPGTRRLQAVLGVQTGGPGGRR [E11A] is lower in protein stability index: 3.68 for the first, 2.57 for the second.

Going from YQGPGTRRLQPVLGVQTGGPGGRR [E11P] to YQGPGTRRLQNVLGVQTGGPGGRR [E11N], the protein stability index rises from 2.73 to 2.98.

Compared with YQGPGTRRLQDVLGVQTGGPGGRR [E11D], YQGPGTRRLQCVLGVQTGGPGGRR [E11C] is lower in protein stability index: 3.39 for the first, 2.44 for the second.

First: YQGPGTRRLQTVLGVQTGGPGGRR [E11T]
Second: YQGPGTRRLQYVLGVQTGGPGGRR [E11Y]
The protein stability index of the first is higher: 3.31 for the first, 2.97 for the second.

Going from YQGPGTRRLQSVLGVQTGGPGGRR [E11S] to YQGPGTRRLQIVLGVQTGGPGGRR [E11I], the protein stability index falls from 3 to 1.97.

First: YQGPGTRRLQGVLGVQTGGPGGRR [E11G]
Second: YQGPGTRRLQVVLGVQTGGPGGRR [E11V]
The protein stability index of the first is higher: 3.78 for the first, 2.56 for the second.

Compared with YQGPGTRRLQLVLGVQTGGPGGRR [E11L], YQGPGTRRLQFVLGVQTGGPGGRR [E11F] is lower in protein stability index: 2.28 for the first, 1.51 for the second.

First: YQGPGTRRLQMVLGVQTGGPGGRR [E11M]
Second: YQGPGTRRLQHVLGVQTGGPGGRR [E11H]
The protein stability index of the first is higher: 2.81 for the first, 2.43 for the second.

Compared with YQGPGTRRLQQVLGVQTGGPGGRR [E11Q], YQGPGTRRLQKVLGVQTGGPGGRR [E11K] is lower in protein stability index: 2.68 for the first, 2.3 for the second.

Going from YQGPGTRRLQWVLGVQTGGPGGRR [E11W] to YQGPGTRRLQRVLGVQTGGPGGRR [E11R], the protein stability index rises from 1.55 to 2.88.

Going from YQGPGTRRLQEVLGCQTGGPGGRR [V15C] to YQGPGTRRLQEVLGWQTGGPGGRR [V15W], the protein stability index rises from 2.82 to 3.1.

Compared with YQGPGTRRLQEVLGGQTGGPGGRR [V15G], YQGPGTRRLQEVLGNQTGGPGGRR [V15N] is higher in protein stability index: 3.63 for the first, 3.81 for the second.

First: YQGPGTRRLQEVLGIQTGGPGGRR [V15I]
Second: YQGPGTRRLQEVLGTQTGGPGGRR [V15T]
The protein stability index of the first is lower: 2.07 for the first, 2.96 for the second.

First: YQGPGTRRLQEVLGQQTGGPGGRR [V15Q]
Second: YQGPGTRRLQEVLGAQTGGPGGRR [V15A]
The protein stability index of the first is higher: 4 for the first, 3.69 for the second.

Going from YQGPGTRRLQEVLGSQTGGPGGRR [V15S] to YQGPGTRRLQEVLGDQTGGPGGRR [V15D], the protein stability index falls from 3.59 to 3.23.

Going from YQGPGTRRLQEVLGKQTGGPGGRR [V15K] to YQGPGTRRLQEVLGLQTGGPGGRR [V15L], the protein stability index falls from 3.01 to 2.68.

Going from YQGPGTRRLQEVLGMQTGGPGGRR [V15M] to YQGPGTRRLQEVLGYQTGGPGGRR [V15Y], the protein stability index rises from 2.24 to 2.92.

Going from YQGPGTRRLQEVLGFQTGGPGGRR [V15F] to YQGPGTRRLQEVLGRQTGGPGGRR [V15R], the protein stability index falls from 3.62 to 3.34.

First: YQGPGTRRLQEVLGEQTGGPGGRR [V15E]
Second: YQGPGTRRLQEVLGVQTAGPGGRR [G18A]
The protein stability index of the first is higher: 3.44 for the first, 3 for the second.

Compared with YQGPGTRRLQEVLGVQTSGPGGRR [G18S], YQGPGTRRLQEVLGVQTWGPGGRR [G18W] is lower in protein stability index: 3.15 for the first, 2.81 for the second.

First: YQGPGTRRLQEVLGVQTHGPGGRR [G18H]
Second: YQGPGTRRLQEVLGVQTCGPGGRR [G18C]
The protein stability index of the first is higher: 3.19 for the first, 3.07 for the second.

Compared with YQGPGTRRLQEVLGVQTMGPGGRR [G18M], YQGPGTRRLQEVLGVQTKGPGGRR [G18K] is lower in protein stability index: 2.79 for the first, 2.6 for the second.

Going from YQGPGTRRLQEVLGVQTEGPGGRR [G18E] to YQGPGTRRLQEVLGVQTTGPGGRR [G18T], the protein stability index falls from 3.52 to 3.51.

Going from YQGPGTRRLQEVLGVQTYGPGGRR [G18Y] to YQGPGTRRLQEVLGVQTFGPGGRR [G18F], the protein stability index rises from 2.94 to 3.23.

Compared with YQGPGTRRLQEVLGVQTQGPGGRR [G18Q], YQGPGTRRLQEVLGVQTLGPGGRR [G18L] is lower in protein stability index: 3.68 for the first, 2.74 for the second.

Compared with YQGPGTRRLQEVLGVQTIGPGGRR [G18I], YQGPGTRRLQEVLGVQTDGPGGRR [G18D] is higher in protein stability index: 2.4 for the first, 4.02 for the second.

First: YQGPGTRRLQEVLGVQTPGPGGRR [G18P]
Second: YQGPGTRRLQEVLGVQTNGPGGRR [G18N]
The protein stability index of the first is lower: 2.84 for the first, 3.34 for the second.

Going from YQGPGTRRLQEVLGVQTVGPGGRR [G18V] to YQGPGTRRLQELLGVQTGGPGGRR [V12L], the protein stability index rises from 3.06 to 3.19.

Compared with YQGPGTRRLQEWLGVQTGGPGGRR [V12W], YQGPGTRRLQEQLGVQTGGPGGRR [V12Q] is higher in protein stability index: 2.92 for the first, 3.5 for the second.

First: YQGPGTRRLQEILGVQTGGPGGRR [V12I]
Second: YQGPGTRRLQEFLGVQTGGPGGRR [V12F]
The protein stability index of the first is higher: 3.58 for the first, 2.94 for the second.

First: YQGPGTRRLQEYLGVQTGGPGGRR [V12Y]
Second: YQGPGTRRLQESLGVQTGGPGGRR [V12S]
The protein stability index of the first is lower: 3.05 for the first, 3.19 for the second.

Going from YQGPGTRRLQERLGVQTGGPGGRR [V12R] to YQGPGTRRLQEHLGVQTGGPGGRR [V12H], the protein stability index rises from 2.91 to 3.66.

First: YQGPGTRRLQEMLGVQTGGPGGRR [V12M]
Second: YQGPGTRRLQEELGVQTGGPGGRR [V12E]
The protein stability index of the first is lower: 2.59 for the first, 3.66 for the second.

Compared with YQGPGTRRLQEALGVQTGGPGGRR [V12A], YQGPGTRRLQECLGVQTGGPGGRR [V12C] is higher in protein stability index: 2.84 for the first, 3.26 for the second.

Compared with YQGPGTRRLQENLGVQTGGPGGRR [V12N], YQGPGTRRLQETLGVQTGGPGGRR [V12T] is lower in protein stability index: 3.81 for the first, 3.75 for the second.

Compared with YQGPGTRRLQEPLGVQTGGPGGRR [V12P], YQGPGTRRLQEDLGVQTGGPGGRR [V12D] is higher in protein stability index: 3.69 for the first, 4.34 for the second.

Compared with YQGPGTRRLQEGLGVQTGGPGGRR [V12G], YQGPGTRRLQEKLGVQTGGPGGRR [V12K] is lower in protein stability index: 3.32 for the first, 2.33 for the second.
